This test deals with microtubules (polymer of tubulin). The experiment in a line: single-molecule TIRF microscopy on microtubules.
Sequence of microtubules (polymer of tubulin) (P68363 whole entry, chain 1 of 2): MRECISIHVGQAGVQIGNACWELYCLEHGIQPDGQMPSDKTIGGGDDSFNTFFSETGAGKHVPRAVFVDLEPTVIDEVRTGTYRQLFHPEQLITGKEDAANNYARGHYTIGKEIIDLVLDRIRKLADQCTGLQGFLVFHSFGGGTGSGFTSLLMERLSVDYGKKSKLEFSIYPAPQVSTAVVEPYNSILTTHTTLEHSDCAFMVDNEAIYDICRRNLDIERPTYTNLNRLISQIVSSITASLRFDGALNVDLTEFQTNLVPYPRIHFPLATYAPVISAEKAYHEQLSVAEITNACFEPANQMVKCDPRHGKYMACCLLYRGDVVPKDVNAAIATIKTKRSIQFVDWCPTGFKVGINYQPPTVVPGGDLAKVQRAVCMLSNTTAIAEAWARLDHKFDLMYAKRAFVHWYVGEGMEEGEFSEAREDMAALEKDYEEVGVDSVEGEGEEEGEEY
Sequence of microtubules (polymer of tubulin) (A8K068 whole entry, chain 2 of 2, further chain): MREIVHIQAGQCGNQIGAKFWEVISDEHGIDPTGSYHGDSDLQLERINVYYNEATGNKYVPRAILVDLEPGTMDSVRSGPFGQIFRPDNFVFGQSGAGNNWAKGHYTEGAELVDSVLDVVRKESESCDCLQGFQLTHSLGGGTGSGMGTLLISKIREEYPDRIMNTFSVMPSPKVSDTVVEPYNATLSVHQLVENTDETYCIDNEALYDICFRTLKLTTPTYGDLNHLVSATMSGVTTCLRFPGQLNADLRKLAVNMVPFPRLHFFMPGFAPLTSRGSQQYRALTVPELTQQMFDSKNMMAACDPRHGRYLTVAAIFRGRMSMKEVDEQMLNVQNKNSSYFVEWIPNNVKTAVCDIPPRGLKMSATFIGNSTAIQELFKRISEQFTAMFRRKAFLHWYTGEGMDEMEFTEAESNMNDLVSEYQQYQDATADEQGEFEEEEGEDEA

“EB1_(FKBP) (human EB1 fused at its C-terminus to FKBP)” yielded a dwell time of 53 ms and a mean dwell time of 0.054 s.

Source of the values: publication PMC3963495.
